Results: paper PMC4409310, “Substrate Recognition and Modification by the Nosiheptide Resistance Methyltransferase”

Key:
[1] = biological target: His-NHR (Streptomyces actuosus, UniProt P52391 1-274); assay: fluorescence anisotropy; 5 mM Mg2+; Anisotropy: 25 mM HEPES-KOH pH 7.5, 25 mM NH4Cl, 5 mM MgCl2, 5 mM DTT, 2.5 uM RNA, 0-8 uM NHR, temperature not stated; EMSA: 25 mM HEPES-KOH pH 8.0, 25 mM NH4Cl, 5 mM MgCl2, 5 mM DTT, 4 C, 1 h, 6-10 uM RNA; conditions: protein: recombinant, tags: N-terminal His6 (pET-28a), chain copies: 2
[2] = biological target: HA-His-NHR-R135A subunit of heterodimer;Flag-Trx-NHR subunit of heterodimer (Streptomyces actuosus;Streptomyces …, UniProt P52391;P52391 1-274;1-274, R135A|); assay: EMSA; 5 mM Mg2+; WT/R135A heterodimer, more efficient than R135A homodimer; Anisotropy: 25 mM HEPES-KOH pH 7.5, 25 mM NH4Cl, 5 mM MgCl2, 5 mM DTT, 2.5 uM RNA, 0-8 uM NHR, temperature not stated; EMSA: 25 mM HEPES-KOH pH 8.0, 25 mM NH4Cl, 5 mM MgCl2, 5 mM DTT, 4 C, 1 h, 6-10 uM RNA; conditions: protein: recombinant;recombinant, tags: HA, N-terminal His6;Flag, thioredoxin, copies: 1;1, label: 3' fluorescein (anisotropy), none (EMSA, SYBR Gold), hairpin
[3] = biological target: HA-His-NHR-R135A (His-NHR-M) (Streptomyces actuosus, UniProt P52391 1-274, R135A); assay: EMSA; 5 mM Mg2+; R135A homodimer, less efficient than heterodimer; Anisotropy: 25 mM HEPES-KOH pH 7.5, 25 mM NH4Cl, 5 mM MgCl2, 5 mM DTT, 2.5 uM RNA, 0-8 uM NHR, temperature not stated; EMSA: 25 mM HEPES-KOH pH 8.0, 25 mM NH4Cl, 5 mM MgCl2, 5 mM DTT, 4 C, 1 h, 6-10 uM RNA; conditions: protein: recombinant; tags: HA, N-terminal His6; chain copies: 2; label: 3' fluorescein (anisotropy); none (EMSA, SYBR Gold); hairpin
[4] = label: 3' fluorescein, folded single strand

| Binder | Kd ([1]; label: 3' fluorescein, hairpin) [µM] | Kd [1, 4] [µM] | other results |
| --- | --- | --- | --- |
| GGAUGUUGGCUUUGAAGCAGCCAUCAUUU (structured_RNA) [29 nt RNA A1067U] | 0.63 ± 0.08 |  |  |
| GGAUGUUGGCUUGGAAGCAGCCAUCAUUU (structured_RNA) [29 nt RNA A1067G] | 0.37 ± 0.03 |  |  |
| GGAUGUUGGCUUAGAAGCAGCCAUCAUUU (structured_RNA) [29 nt RNA wt A1067] |  |  | binding result [2]: binds; Kd ([1]; label: 3' fluorescein (anisotropy), none (EMSA, SYBR Gold), hairpin): 0.37 ± 0.03 µM; binding result [3]: binds |
| GGAUGUUGGCUUCGAAGCAGCCAUCAUUU (structured_RNA) [29 nt RNA A1067C] | 0.46 ± 0.04 |  |  |
| 58 nt RNA A1067G (structured_RNA) RNA: GGCCAGGAUGUUGGCUUGGAAGCAGCCAUCAUUUAAAGAAAGCGUAAUAGCUCACUGGCU |  | 0.77 ± 0.02 |  |
| 58 nt RNA A1067U (structured_RNA) RNA: GGCCAGGAUGUUGGCUUUGAAGCAGCCAUCAUUUAAAGAAAGCGUAAUAGCUCACUGGCU |  | 0.91 ± 0.02 |  |
| 58 nt RNA A1067C (structured_RNA) RNA: GGCCAGGAUGUUGGCUUCGAAGCAGCCAUCAUUUAAAGAAAGCGUAAUAGCUCACUGGCU |  | 0.8 ± 0.02 |  |
